# Measured values as given in patent publication US6521740 (IMMUNEX, dated 2003).
# B1: soluble human type II IL-1R (amino acids -13-333 of SEQ ID NO:1) (receptor)
# chain: FTLQPAAHTGAARSCRFRGRHYKREFRLEGEPVALRCPQVPYWLWASVSPRINLTWHKNDSARTVPGEEETRMWAQDGALWLLPALQEDSGTYVCTTRNASYCDKMSIELRVFENTDAFLPFISYPQILTLSTSGVLVCPDLSEFTRDKTDVKIQWYKDSLLLDKDNEKFLSVRGTTHLLVHDVALEDAGYYRCVLTFAHEGQQYNITRSIELRIKKKKEETIPVIISPLKTISASLGSRLTIPCKVFLGTGTPLTTMLWWTANDTHIESAYPGGRVTEGPRQEYSENNENYIEVPLIFDPVTREDLHMDFKCVVHNTLSFQTLRTTVKEASS
# notes: It includes 3 amino acids of the predicted transmembrane region (331-356)
# Legend:
# recombinant human IL-1α = biological target: T1, recombinant human IL-1α (human, UniProt P01583 113-271, limits assumed); assay: Inhibition binding assay; soluble receptor against IL-1α binding to CB23 cells; same procedure
# T1 construct: also called Interleukin-1α
# T1 sequence (looked up): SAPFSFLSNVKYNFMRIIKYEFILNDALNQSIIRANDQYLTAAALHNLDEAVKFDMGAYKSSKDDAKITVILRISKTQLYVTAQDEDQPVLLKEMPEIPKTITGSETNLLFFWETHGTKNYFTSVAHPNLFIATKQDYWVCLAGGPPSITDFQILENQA
# recombinant human IL-1β = biological target: T2, recombinant human IL-1β (human, UniProt P01584 117-269); assay: Inhibition binding assay; soluble receptor (COS-7 supernatant, serially diluted) against 125I-IL-1β binding to CB23 cells; phthalate oil separation
# T2 construct: The 17.5 kD size is consistent with the mature form; also called rIL-1β
# Experimental: The binding inhibition constant of the soluble human type II IL-1R, expressed and purified as described in Example 2 above, is determined by a inhibition binding assay in which varying concentrations of an IL-1β competitor is incubated with a constant amount of radiolabeled I-IL-1β and CB23 cells (an Epstein Barr virus transformed cord blood B lymphocyte cell line) expressing the type II IL-1R. Binding assays were also performed by a phtahlate oil separation method essentially as describe by Dower et al., *J. Immunol.* 132:751, 1984 and Park et al., *J. Biol. Chem.* 261:4177, 1986. Briefly, COS-7 cells were transfected with the expression vector pDC406 containing a cDNA encoding the soluble human type II IL-1R described above. Supernatants from the COS cells were harvested 3 days after transfection and serially diluted in binding medium (Roswell Park Memorial Institute (RPMI) 1640 medium containing 2% BSA, 20 mM Hepes buffer, and 0.2% sodium azide, pH 7.2) in […] to a volume of 50 μl/well. […] Duplicate 60 μl aliquots of the incubation mixture were then transferred to polyethylene centrifuge tubes containing a phthalate oil mixture comprising 1.5 parts dibutylphthalate, to 1 part bis(s-ethylhexyl)phthalate. […] The radioactivity of the cells was then determined on a gamma counter.
binder,measurement,setting,value
B1,"KI (binding inhibition constant, given as an association constant)",recombinant human IL-1α,1.4e+08 M⁻¹
same,"KI (binding inhibition constant, given as an association constant)",recombinant human IL-1β,~3.5e+09 M⁻¹
